Data taken from patent US20250186491A1, “COMPOSITIONS AND METHODS FOR TREATING CANCER WITH CHIMERIC TIM RECEPTORS IN COMBINATION WITH INHIBITORS OF POLY (ADP-RIBOSE) POLYMERASE” (CERO THERAPEUTICS HOLDINGS, INC., priority 2020, published 2025).
Entries after “also recorded” stand apart in the source; their conditions may differ. Read-outs that look alike come from different tables or passages of the source.

Assays:
[1] = tested on: Kuramochi-mCh-NLS cells; experiment: Co-culture of chimeric Tim receptor T cells with Niraparib-treated Kuramochi cells (IncuCyte); type: cell-based, human
Procedure: Kuramochi cells expressing a mCherry-NLS plasmid were incubated for 20 hours with 25, 12.5, or 6.25 μM Niraparib. The next day the Niraparib concentration was reduced to 0.52 μM and co-cultures of primary human CD4+ and CD8+ T cells expressing chimeric Tim receptor construct 13A (TIM4 binding domain-CD28 transmembrane domain—CD28 costimulatory domain-CD3ζ signaling domain) (SEQ ID NO 162) were added to the Kuramochi culture. […] The number of Kuramochi cells expressing mCherry-NLS was monitored via IncuCyte.
Kuramochi cells expressing a mCherry-NLS plasmid were incubated for ˜20 hours with 1.56 μM Niraparib. The next day, media were removed from cells and replaced with fresh media with 0 μM Niraparib, and primary human CD4+ and CD8+ T cells expressing chimeric Tim receptor CTX140 (Tim4 binding domain-CD28 hinge-CD28 transmembrane-CD28 costimulatory domain-DAP12)(SEQ ID NO: 195) or CTX156 (tEGFR control) were added to the Kuramochi culture. The number of Kuramochi cells expressing mCherry-NLS was monitored via IncuCyte.
21500 Kuramochi ovarian cancer cells expressing an mCherry-NLS plasmid were plated on day 0.25, 12.5, or 6.25 μM Niraparib were added to cell culture ˜4 hours later. ˜20 hours after initial Niraparib dose, primary human CD4+ and CD8+ T cells expressing chimeric Tim receptor CTX137 (Tim4 binding domain-CD28 transmembrane-CD28 costimulatory domain-DAP12) (SEQ ID NO: 197) or CTX156 (tEGFR control) and maintenance dose of 0.52 μM Niraparib were added.
T cell transduction and culturing: CD4 and CD8 T cells were isolated from frozen healthy donor PBMCs using Miltenyi CD4+ and CD8+ isolation kits. CD4 and CD8 T cells were then mixed in a 1:1 ratio and incubated overnight in a flat bottom 24 well plate in OpTmizer medium supplemented with cell serum replacement, IL-Glutamine, GlutaMAX, and IL-2, IL-7, and IL-15 cytokines, and TransAct diluted 1:50. […] T cells were counted and supplemented with fresh medium approximately every two days thereafter. […]

[2] = low phosphatidylserine density, cited from earlier work

B1: CTX137: Tim4 binding domain-CD28 transmembrane-CD28 costimulatory domain-DAP12, SEQ ID NO: 197 (protein)
chain: MSKEPLILWLMIEFWWLYLTPVTSETVVTEVLGHRVTLPCLYSSWSHNSNSMCWGKDQCPYSGCKEALIRTDGMRVTSRKSAKYRLQGTIPRGDVSLTILNPSESDSGVYCCRIEVPGWFNDVKINVRLNLQRASTTTHRTATTTTRRTTTTSPTTTRQMTTTPAALPTTVVTTPDLTTGTPLQMTTIAVFTTANTCLSLTPSTLPEEATGLLTPEPSKEGPILTAESETVLPSDSWSSVESTSADTVLLTSKESKVWDLPSTSHVSMWKTSDSVSSPQPGASDTAVPEQNKTTKTGQMDGIPMSMKNEMPISQFWVLVVVGGVLACYSLLVTVAFIIFWVRSKRSRLLHSDYMNMTPRRPGPTRKHYQPYAPPRDFAAYRSYFLGRLVPRGRGAAEAATRKQRITETESPYQELQGQRSDVYSDLNTQRPYYK
modifications: Tim4 binding domain-CD28 transmembrane-CD28 costimulatory signaling domain-DAP12 signaling domain, amino acids 1-24 are signal peptide (CTX137)
Q: Which Kuramochi cell numbers ([1]; Niraparib 25 μM pre-incubation + 0.52 μM maintenance, control CTX156, FIG. 6) does the source give for B1 here?
A: reduces Kuramochi cell numbers

Q: What about the “number of Kuramochi cells in culture vs mock transduction control” value ([1]; Niraparib 25, 12.5 or 6.25 μM pre-treatment ~20 h, then 0.52 μM, CD4+/CD8+ T cells, FIG. 4, FIG. 7) of the same molecule?
A: reduces Kuramochi cell numbers; also recorded: significantly reduce the number of Kuramochi cells

B2: Tim-4: phosphatidylserine receptor typically expressed on antigen presenting cells (protein, UniProt Q96H15 25-378, looked up)
T-cell immunoglobulin and …: ETVVTEVLGHRVTLPCLYSSWSHNSNSMCWGKDQCPYSGCKEALIRTDGMRVTSRKSAKYRLQGTIPRGDVSLTILNPSESDSGVYCCRIEVPGWFNDVKINVRLNLQRASTTTHRTATTTTRRTTTTSPTTTRQMTTTPAALPTTVVTTPDLTTGTPLQMTTIAVFTTANTCLSLTPSTLPEEATGLLTPEPSKEGPILTAESETVLPSDSWSSVESTSADTVLLTSKESKVWDLPSTSHVSMWKTSDSVSSPQPGASDTAVPEQNKTTKTGQMDGIPMSMKNEMPISQLLMIIAPSLGFVLFALFVAFLLRGKLMETYCSQKHTRLDYIGDSKNVLNDVQHGREDEDGLFTL
Q: For B2, which “binding at Low PtdSer” value [2] is on record?
A: Minimal

Q: And the “binding at Low PtdSer” value ([2]; listed as Tim4 binding domain)?
A: binds minimally

B3: CTX140: Tim4 binding domain-CD28 hinge-CD28 transmembrane-CD28 costimulatory domain-DAP12, SEQ ID NO: 195 (protein)
chain: MSKEPLILWLMIEFWWLYLTPVTSETVVTEVLGHRVTLPCLYSSWSHNSNSMCWGKDQCPYSGCKEALIRTDGMRVTSRKSAKYRLQGTIPRGDVSLTILNPSESDSGVYCCRIEVPGWFNDVKINVRLNLQRASTTTHRTATTTTRRTTTTSPTTTRQMTTTPAALPTTVVTTPDLTTGTPLQMTTIAVFTTANTCLSLTPSTLPEEATGLLTPEPSKEGPILTAESETVLPSDSWSSVESTSADTVLLTSKESKVWDLPSTSHVSMWKTSDSVSSPQPGASDTAVPEQNKTTKTGQMDGIPMSMKNEMPISQIEVMYPPPYLDNEKSNGTIIHVKGKHLCPSPLFPGPSKPFWVLVVVGGVLACYSLLVTVAFIIFWVRSKRSRLLHSDYMNMTPRRPGPTRKHYQPYAPPRDFAAYRSYFLGRLVPRGRGAAEAATRKQRITETESPYQELQGQRSDVYSDLNTQRPYYK
modifications: Tim4 binding domain-CD28 hinge-CD28 transmembrane-CD28 costimulatory signaling domain-DAP12 signaling domain, amino acids 1-24 are signal peptide(CTX140)
Q: Which “number of Kuramochi cells in culture vs mock transduction control” value ([1]; Niraparib 1.56 μM pre-incubation ~20 h, then 0 μM, control CTX156, FIG. 5) does the source give for B3 here?
A: reduces Kuramochi cell numbers; also recorded: significantly reduce the number of Kuramochi cells
